Results from patent publication US20210047431A1 (DIACCURATE, published 2021).
Positions count from the first letter of the chain named. Blank lines part the entries; values can stand above or below the binder they belong to.

Key:
[1] = target: T1, recombinant human pro-sPLA2-GIB (pro form of group IB pancreatic phospholipase A2) (human, UniProt P04054 16-148); assay: competitive ELISA: mAb premixed with serial dilutions of soluble antigen, free mAb read on antigen-coated plate
T1 construct: also called pro-sPLA2-IB; proPLA2-GIB
Procedure: (§1) Binding affinities of the antibodies to pro-sPLA2-GIB and sPLA2-GIB were measured by plate-based competition immunoassay. For the competition ELISA, briefly, constant amounts of antibody at different levels were premixed with serial dilutions of antigen protein, human sPLA2-GIB or pro-sPLA2-GIB, ranging from 0 to 10 μg/ml, and incubated for two hours at room temperature to reach pseudo-binding equilibrium between the antibody and antigen. These solutions were then transferred to 96-well sPLA2-GIB or pro-sPLA2-GIB pre-coated plates to allow the free-antibody in the mixtures to bind to plate-coated sPLA2-GIB or pro-sPLA2-GIB. The plates were typically coated with 30 to 100 ng of human sPLA2-GIB or pro-sPLA2-GIB protein in PBS solution overnight at 4° C. followed by BSA nonspecific blocking. After washing off excess antibody in solution, plate-bound antibodies were detected with an HRP-conjugated goat anti-mouse IgG or IgA polyclonal antibody reagent and developed using colorimetric substrate. The dependency of the signals on the concentrations of antigen in solution was analyzed with a 4-parameter fit analysis using Prism™ software (Graph Pad) and reported as IC50.
(§2) The respective binding affinities of the antibodies to human pro-sPLA2-GIB and human sPLA2-GIB were measured by plate-based competition immunoassay. Briefly, constant amounts of antibody at different levels were premixed with serial dilutions of antigen proteins to reach pseudo-binding equilibrium between the antibody and antigen. These solutions were then transferred to antigen pre-coated plates to allow the free-antibody in the mixtures to bind to plate-coated sPLA2-GIB or pro-sPLA2-GIB. Plate-bound antibodies were detected with an HRP-conjugated polyclonal antibody. Data were fitted with a 4PL logistic non-linear regression model and the relative IC50 values were estimated from the model (Table 2).

[2] = target: T2, recombinant human sPLA2-GIB (mature secreted form of group IB pancreatic phospholipase A2) (human, UniProt P04054 23-148); assay: as above
T2 construct: Genbank NP_000919 printed for human PLA2-GIB; also called sPLA2-IB; mature sPLA2-GIB
Procedure: as §1, §2

[3] = target: T2, recombinant human sPLA2-GIB (mature …); assay: competition ELISA on coated sPLA2-IB; competitor biotinylated 1C11
Procedure: (§3) Epitope mapping of the #14G9, #1C11, #8G11 and #7A10 mAbs was evaluated by competition ELISA. Biotinylated mAbs #14G9, #1C11, #8G11 or #7A10 were added to sPLA2-GIB or pro-sPLA2-GIB coated plates in the presence of an excess of un-biotinylated mAb. Bound mAbs were then detected with Streptavidin-HRP conjugate. Results were expressed as percentage of signal, after subtraction of the autologous competition, with 0% representing maximum competition and 100% no competition (Table 4).

[4] = target: T1, recombinant human pro-sPLA2-GIB (pro …); assay: SPR (BIAcore 2000), mAb captured on anti-mouse IgG, antigen in solution
Procedure: (§4) The affinity constant (KD) of the pro-sPLA2-GIB and sPLA2-GIB binding to the selected antibodies described above were determined by surface kinetics on a real-time biosensor surface plasmon resonance assay (BIAcore™). More specifically, the affinity of the antibodies for human pro-sPLA2-GIB and sPLA2-GIB was measured using a BIAcore® 2000. The antibody was captured on an anti-mouse IgG surface and exposed to various concentrations of recombinant pro-sPLA2-GIB and sPLA2-GIB protein. Kinetic analysis using BlAevaluation™ software was performed to obtain the association and dissociation rate constants.
as §4, with “constants (Table 3).” for “constants.”

[5] = target: T2, recombinant human sPLA2-GIB (mature …); assay: as above
Procedure: as §4
as §4, with “constants (Table 3).” for “constants.”

[6] = target: T2, recombinant human sPLA2-GIB (mature …); assay: cell-based or functional assay
[7] = target: T1, recombinant human pro-sPLA2-GIB (pro …); assay: indirect ELISA, coated antigen
Procedure: (§5) Microplate wells were typically coated with 100 ng of recombinant human sPLA2-GIB or pro-sPLA2-GIB in PBS pH 7.5, overnight at 4° C. Sample wells were washed three times with PBS containing 0.05% Tween 20. After final washing, sample wells were treated with blocking solution containing 1% bovine serum albumin (BSA) in PBS buffer for 60 min at room temperature. Following washing with PBS containing 0.05% Tween 20, increasing amounts (10 ng/mL up to 3 μg/mL) of mAb directed against human pro-sPLA2-GIB or sPLA2-GIB were added to antigen-coated wells. and incubated for 120 min at room temperature. Following washing with PBS containing 0.05% Tween 20, the binding of mAb was detected with an HRP-conjugated goat anti-mouse IgG or IgA polyclonal antibody reagent and developed using colorimetric substrate. The dependency of the signals on the […] was analyzed with a 4-parameter fit analysis using Prism™ software (Graph Pad) and reported as EC50.

[8] = target: T2, recombinant human sPLA2-GIB (mature …); assay: indirect ELISA, coated antigen
Procedure: as §5

[9] = target: T1, recombinant human pro-sPLA2-GIB (pro …); assay: competition ELISA on coated pro-sPLA2-IB; competitor biotinylated 1C11
Procedure: as §3

[10] = target: T1, recombinant human pro-sPLA2-GIB (pro …); assay: competition ELISA on coated pro-sPLA2-IB; competitor biotinylated 8G11
Procedure: as §3

[11] = target: T2, recombinant human sPLA2-GIB (mature …); assay: competition ELISA on coated sPLA2-IB; competitor biotinylated 14G9
Procedure: as §3

[12] = target: T2, recombinant human sPLA2-GIB (mature …); assay: competition ELISA on coated sPLA2-IB; competitor biotinylated 7A10
Procedure: as §3

[13] = target: T1, recombinant human pro-sPLA2-GIB (pro …); assay: competition ELISA on coated pro-sPLA2-IB; competitor biotinylated 7A10
Procedure: as §3

[14] = target: T2, recombinant human sPLA2-GIB (mature …); assay: cell-based or functional assay; remark: listed apart in the source
[15] = target: T1, recombinant human pro-sPLA2-GIB (pro …); assay: SPR (BIAcore 2000), mAb captured on anti-mouse IgG, antigen in solution; SPR, mAb captured, pro-sPLA2-GIB in solution
Procedure: as §4
as §4, with “constants (Table 3).” for “constants.”

[16] = target: T1, recombinant human pro-sPLA2-GIB (pro …); assay: indirect ELISA, coated antigen; indirect ELISA, pro-sPLA2-IB coated on the plate
Procedure: as §5

[17] = target: T1, recombinant human pro-sPLA2-GIB (pro …); assay: competitive ELISA: mAb premixed with serial dilutions of soluble antigen, free mAb read on antigen-coated plate; competitive ELISA, soluble pro-sPLA2-IB
Procedure: as §1, with “The plates were typically coated with 30 to 100 ng of human sPLA2-GIB or pro-sPLA2-GIB protein in PBS solution overnight at 4° C. followed by BSA nonspecific blocking.” left out
The respective binding affinities of the antibodies to human pro-sPLA2-GIB and human sPLA2-GIB were measured by plate-based competition immunoassay. […] Plate-bound antibodies were detected with an HRP-conjugated polyclonal antibody. […]

T1 sequence (P04054 16-148): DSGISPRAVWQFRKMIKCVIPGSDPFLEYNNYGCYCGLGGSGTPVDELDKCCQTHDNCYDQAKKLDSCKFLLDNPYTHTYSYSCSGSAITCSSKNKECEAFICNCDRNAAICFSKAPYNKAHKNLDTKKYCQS
T2 sequence (P04054 23-148): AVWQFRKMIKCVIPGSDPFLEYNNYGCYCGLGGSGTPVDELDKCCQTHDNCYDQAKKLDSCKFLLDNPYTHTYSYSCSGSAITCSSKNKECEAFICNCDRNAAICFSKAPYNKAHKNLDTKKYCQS

IC50 [1]: 4.3 nM
IC50 [2]: 5.3 nM
percentage of signal [3]: 19%
Kd [4]: 3.79 nM
koff [4]: 0.000407 s⁻¹
kon [4]: 110000 M⁻¹ s⁻¹
t1/2 [4]: 41 min
Kd [5]: 3.83 nM
koff [5]: 0.000444 s⁻¹
kon [5]: 118000 M⁻¹ s⁻¹
t1/2 [5]: 37.5 min
Enzymatic Activity Inhibition (% of Control) [6]: 51%
EC50 [7]: 13 nM
EC50 [8]: 77 nM
percentage of signal [9]: 18%
percentage of signal [10]: 93%
percentage of signal [11]: 58%
B1: #7A10 (antibody, IgG1, V domains shown)
VH: QVQLKESGPGLVAPSQSLSITCTVSGFSLTSYGVSWVRQPPGKGLEWLGVIWGDGSTNYHSALISRLSISKDNSKSQVFLKLNSLQTDDTATYYCAKEGGLRRGVYFDYWGQGTTLTVSS
VL: DIQMNQSPSSLSASLGDTITITCRASQGISIWLDWYQQKPGNIPKLLIYKASNLHTGVPPRFSGSGSGTDFTLTISSLQPEDIATYYCLQSQSYPLTFGAGTKLELKR
notes: also called monoclonal antibody 7A10; #7A10 mAb

percentage of signal [12]: 1150%
IC50 [1]: 2.4 nM
IC50 [2]: 3.8 nM
Kd [4]: 0.151 nM
koff [4]: 0.000405 s⁻¹
kon [4]: 2.7e+06 M⁻¹ s⁻¹
t1/2 [4]: 41.2 min
Kd [5]: 0.0644 nM
koff [5]: 0.000309 s⁻¹
kon [5]: 4.79e+06 M⁻¹ s⁻¹
t1/2 [5]: 53.9 min
Enzymatic Activity Inhibition (% of Control) [6]: 110%
EC50 [7]: 4 nM
EC50 [8]: 3 nM
percentage of signal [10]: 496%
percentage of signal [13]: 314%
percentage of signal [11]: 1440%
B2: #1C11 (antibody, IgG1, V domains shown)
VH: EVKLQESGPELVKPGASVKISCKVSGYAFSSFWMNWVKQRPGKGLEWIGRIYPGDGDINYNGKFKGKATLTADKSSSTAYMQLSSLTSEDSAVYFCVRGWAWFPYWGQGTLVTVSA
VL: EIVLTQSPAITSASLGQRVTISCSATSSVSYVHWYQQKSGTSPKPWIYEISRLASGVPARFSGSGSGTSYSLTISTMEAEDAAIYYCQSWNFPLLSFGAGTKLELKR
notes: also called monoclonal antibody 1C11; #1C11 mAb

percentage of signal [12]: 53%
percentage of signal [3]: 56%
Enzymatic Activity Inhibition (% of Control) [6]: 3%
EC50 [7]: 117 nM
EC50 [8]: 22 nM
percentage of signal [9]: 18%
percentage of signal [10]: 39%
percentage of signal [13]: 141%
percentage of signal [11]: 2%
B3: #22C6 (antibody, IgG2a, V domains shown)
VH: EVQLQESGPGLVKPSQTVSLNCTVTGHSITDDNYYWSWIRLVSGSKLEWIGYITSAGNTDNNPSLKSRISITRDISKNQFFLHLSSVTAEDTATYYCARDSTDGDFYFEKWGQGTTLTVSS
VL: EIVLTQSPTTMAASPGEKITITCSVSSSISPNFLHWYQQKPGFSPKLLIFRTSNLASGVPTRFSGSGSGTSYSLTIGTMEAEDVATYYCHQGNSLPLTFGAGTKLELKR

percentage of signal [12]: 65%
percentage of signal [3]: 61%
Enzymatic Activity Inhibition (% of Control) [6]: 5%
EC50 [7]: 81 nM
EC50 [8]: 15 nM
percentage of signal [9]: 23%
percentage of signal [10]: 64%
percentage of signal [13]: 135%
percentage of signal [11]: 17%
B4: #24B2 (antibody, IgG2a, V domains shown)
VH: B3 VH with E1D, L4V, A56S, N58S, N61I, S85N
VL: DIVLTQSPASLAVSLGQRATISCRASESVDNYGISFMHWYQQKPGQPPKLLIYRASNLESGIPARFSGSGSRTDFTLTINPVETDDVATYYCQQSSRDLFTFGGGTKLEIKR

percentage of signal [12]: 12%
IC50 [2]: 1 nM
IC50 of inhibition of sPLA2-GIB enzymatic activity (sPLA2 Activity in U/mL against #14G9 mAb in Log M, 4PL fit) [14]: 2.3 nM
Kd [15]: 174 nM
koff [15]: 0.0506 s⁻¹
kon [15]: 301000 M⁻¹ s⁻¹
t1/2 [15]: 0.3 min
percentage of signal [3]: 64%
Kd [5]: 0.338 nM
koff [5]: 0.000549 s⁻¹
kon [5]: 1.63e+06 M⁻¹ s⁻¹
t1/2 [5]: 30.4 min
Enzymatic Activity Inhibition (% of Control) [6]: 5%
EC50 [8]: 6 nM
percentage of signal [9]: 69%
percentage of signal [10]: 73%
EC50 [16]: 158 nM
IC50 [17]: 109 nM
percentage of signal [13]: 141%
B5: #14G9 (antibody, IgG1, V domains shown)
VH: QVQLQQPGAELVKPGASVKLSCKASGYTFTNYWIHWVKRRPGQGLEWIGNIDPSDTRTHYNQKFKDKATLAVDKSSSTAYMQLSSLTSEDSAVFYCARQTLYYEALDYWGQGTTLTVSS
VL: DIVMTQSHKLMSTSVGDRVSITCKASQDVSTAVAWYQEKPGQSPKLLIYWASTRHTGVPNRFTGSRSGTDYTLTISSVQAEDLALYYCQQDYSTPPTFGAGTKLELKR
notes: also called monoclonal antibody 14G9; #14G9 mAb
